From patent publication US20230270832A1 (published 2023) come the findings set out here.

The target in the experiment is T1, MAGEA1 peptide on HLA-C*07:02 (human).
T1 peptide: VRFFFPSL
Description: killing.

B1: MAGEA1 TCR 32-39 (TCR, V domains shown)
Valpha: DQQVKQNSPSLSVQEGRISILNCDYTNSMFDYFLWYKKYPAEGPTFLISISSIKDKNEDGRFTVFLNKSAKHLSLHIVPSQPGDSAVYFCAASAQNNDMRFGAGTRLTVKP
Vbeta: NAGVMQNPRHLVRRRGQEARLRCSPMKGHSHVYWYRQLPEEGLKFMVYLQKENIIDESGMPKERFSAEFPKEGPSILRIQQVVRGDSAAYFCASSPSYEQYFGPGTRLTVT
As for B1, the binding result is recorded as “recognises”.

B2: MAGEA1 TCR 32-41 (TCR, V domains shown)
Valpha: TQLLEQSPQFLSIQEGENLTVYCNSSSVFSSLQWYRQEPGEGPVLLVTVVTGGEVKKLKRLTFQFGDARKDSSLHITAAQPGDTGLYLCAGDESISYGKLTFGQGTILTVHP
Vbeta: DAGVIQSPRHEVTEMGQEVTLRCKPISGHDYLFWYRQTMMRGLELLIYFNNNVPIDDSGMPEDRFSAKMPNASFSTLKIQPSEPRDSAVYFCASSFLGWNEKLFFGSGTQLSVL
In the case of B2, the binding result is recorded as “recognises”.
